Data as given in the nanobody polyreactivity screen of Harvey et al. (2022).

Experiment: yeast display, Sf9 membrane polyspecificity reagent, FACS + sequencing; frameworks hold sequencing errors
How it was run: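 In a synthetic yeast display library (Saccharomyces cerevisiae BJ5465), nanobody expression was induced with galactose for 36–48 hours. FACS gates were set low and high (top ~1%) using anti-HA fluorescence for expression and streptavidin fluorescence for binding of the Sf9 membrane reagent. Each polyreactivity label is drawn from the gate of origin.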

Sequence | polyreactivity (PSR sort gate)
QVQLVESGGGLVQAGGSLRLSCAASGRIFSGYTMGWYRQAPGKERELVAAITRSGGSTYYADSVKGRFTISRDNAKNTVYLQMISLKPEDTAVYYCNKVSYRHMDSWGQGTQVTVSS | high polyreactivity
QVQLVESGGGLVQAGGSLRLSCAASGRIFSHNAMGWYRQAPGKERELVAAITGSGGTTYYADSVKGRFKISRDNAKNTVYLQMNSLKPEDTAVYYCAADWQQLSYVWRSQRRYNYWGQGTQVTVSS | low polyreactivity
QVQLVESGGGLVQAGGSLRLSCAASGRIFSIYAMGWYRQAPGKEREFVAAITQSGGSTYYADSVKGRFTISRDNAKNTVYLQMNSLKPEDTAVYYCAADEWGVRSEYDYWGQGTQVTVSS | low polyreactivity
QVQLVESGGGLVQAGGSLRLSCAASGRIFSIYAMGWYRQAPVKERELVAAISKRGGSTSYADSVKGRFTISRDNAKNTVYLQMNSLKPEDTAVYYCNARGWIPARGWDDYYWGQGTQVTVSS | high polyreactivity
QVQLVESGGGLVQAGGSLRLSCAASGRIFSIYGMGWYRQAPGKEREFVASITYSGGSTYYADSVKGRFTISRDYAKNTVYLQMNSLKPEDTAVYYCNADIEKSYNYWGQGTQVTVSS | low polyreactivity
QVQLVESGGGLVQAGGSLRLSCAASGRIFSIYGMGWYRQAPGKERELVAVISGSVAITYYADSVKGRFTISRDNAKNTVYLQMNSLKPEDTAVYYCAAVYQSRLWARYYYWGQGSQVTVSS | high polyreactivity
QVQLVESGGGLVQAGGSLRLSCAASGRIFSIYGMGWYRQAPGKERELVAVISGSVGITYYADSVKGRFTISRDNAKNTVYLQMNSLKPEDTAVYYCNAKFRRRKYDYWGQGTQVTVSS | high polyreactivity
QVQLVESGGGLVQAGGSLRLSCAASGRIFSKYAMGWYRQAPGKERELVAAIRSGGRTYYADSVKGRFTISRDNAKNTVYLQMNSLKPEDTAVYYCAKGTFRYPFSFTFLGYDYWGQGTQVTVSS | high polyreactivity
QVQLVESGGGLVQAGGSLRLSCAASGRIFSLYAMGWYRQAPGKERELVAAISWSGGTTYDADSVKGRFTISRDNAKNTVYLQMNSLKPEDTAVYYCAAQYIGKKRFNYWGQGTQVTVSS | high polyreactivity
QVQLVESGGGLVQAGGSLRLSCAASGRIFSNNAMGWYRQAPGKERELVATITGSGGRTYYADSVKGRFTISRDIAKNSVYLQMNSLKPEDTAVYYCNADLYSYYWRVRYGLDYWGQGTQVTVSS | high polyreactivity
QVQLVESGGGLVQAGGSLRLSCAASGRIFSNYAMGWYRHAPGKEREFVAAISGSGGITYYADSVKGRFTISRDNAKNTFYLQMNSLKPEDTAVYYCARRLHYVPLISYNYWGQGTQVTVSS | low polyreactivity
QVQLVESGGGLVQAGGSLRLSCAASGRIFSNYAMGWYRQAPGKERELVAAISRGGGRTFYADSVKGRFTISRDNAKNTVYLQMNSLKPEDTAVYYCATRSYYVKGDYWGQGTQVNVSS | high polyreactivity
QVQLVESGGGLVQAGGSLRLSCAASGRIFSPNAMGWYRQAPGKERELVAAITRGGSTNYADSVKGRFTISRDNAKNTVYLQMNSLKPEDTAVYYCAAQLAKTIRGRGYNSWGQGTKVTVSS | low polyreactivity
QVQLVESGGGLVQAGGSLRLSCAASGRIFSQNAMGWYRKAPGKERELVAAIRYSTGSTYYADSVKGRFTISRDNAKNTVYLQMNSLKPEDTAVYYCAADRWVSGYRRPRRGQAHYYWGQGTQVTVSS | high polyreactivity
QVQLVESGGGLVQAGGSLRLSCAASGRIFSQYAMGWYRQAPGKERELVAAISRRTGSTYYADSVKVRFTISRDNAKNTVYLQMNSLKPDDTAVYFCNKARLGWSYRQDDYWGQGTQVTVSS | high polyreactivity
QVQLVESGGGLVQAGGSLRLSCAASGRIFSRNAMGWYRKAPGKERELVATISAGGGRTSYADSVKGRFTISRDNAKNTVYLQMNSLKPEDTADYYCAARGQVGYYWGQGTQVTVSS | high polyreactivity
QVQLVESGGGLVQAGGSLRLSCAASGRIFSRNAMGWYRQAPGKERDLVAAITWRGGSTNYADSVKGRFTISRDNAKNTVYLQMNSLKPEDTAVYYCAARISRYPQDDSDYWGQGTQVTVSS | high polyreactivity
QVQLVESGGGLVQAGGSLRLSCAASGRIFSRNAMGWYRQAPGKERELVAAISGSGTSTYYAVSVKGRFTISRDNAKNTVYLQMNSLKPEDTAVSYCAADYPAVISIRRYDYWGQGTQVTVSS | low polyreactivity
QVQLVESGGGLVQAGGSLRLSCAASGRIFSRNAMGWYRQAPGKERELVAAITRIGGSTYYADSVKGRFTISRDTAKNTVYLQMNSRKPEDTAVYYSAARGSGKYGWGQGTQVTVSS | high polyreactivity
QVQLVESGGGLVQAGGSLRLSCAASGRIFSRNTMGWYRQAPGKERELVATISWSGSRTYYADSVKGRFTISRDNAKNTVYLQMNSLKPEDTAVYYCAARLWPSYLSYGKTGDYWGQGTQVTVSS | high polyreactivity
QVQLVESGGGLVQAGGSLRLSCAASGRIFSRYALGWYRQAPGQERELDAAINKSGGSTYYADSVKGRFTISRDNAKNTVYFQMKSMKAEDTAVYYCTAVYYWYKGDYWGQGTQVTVSS | high polyreactivity
QVQLVESGGGLVQAGGSLRLSCAASGRIFSRYAMGWYRQAPGKERELVAAINKSGGSTYYADSVKGRFTISRDNAKNTVYLQMNSLKPEDTAVYYCAAALGRRRTGYDYWGQGTQGTVSS | high polyreactivity

Sequence | polyreactivity (PSR sort gate)
QVQLVESGGGLVQAGGSLRLSCAASGRIFSRYAMGWYRQAPGKERELVAAIRWSGGRTYYADSVKGRFTISRDNAKNTVYLQMNSLKPEDTAVYYCAKYRYTVAGYNYWGQGTQVTVSS | high polyreactivity
QVQLVESGGGLVQAGGSLRLSCAASGRIFSRYAMGWYRQAPGKERELVAAISRAASTNYADSVKGRFTISRDNAKNTVYLQMNSLKPEDTAVYYCNKRLYGYYGRYDYWGQGTQVTVSS | low polyreactivity
QVQLVESGGGLVQAGGSLRLSCAASGRIFSRYAMGWYRQAPGKERELVAGITRSGTTTYYADSVKGRFTISRDNAKNTVYLQMNSLKPEDTAVYYCAAPPIRPNLYDYWGQGTQVTVSS | high polyreactivity
QVQLVESGGGLVQAGGSLRLSCAASGRIFSRYAMGWYRQAPVKERELVATITRSGARTYYADSVKGRFTISRDNAKNTVYLQMNSLKPEDTAVYYCATPYKYVTGEDYWGQGTQVTVSS | high polyreactivity
QVQLVESGGGLVQAGGSLRLSCAASGRIFSRYAMVWYRQAPGKERELVAAINKSGGSTYYADSVKGRFTISRDNAKNTVYLQMNSLKPEDTAVYYCNAVYYWYKGDYWGQGTQVTVSS | high polyreactivity
QVQLVESGGGLVQAGGSLRLSCAASGRIFSRYVMGWYRQAPGKERELVAAISWNGGSTYYADSVKGRFRISRDNAKNTVYLQMNSLKPEDTAVYYCAARVRVTGTYYTKYDYWGQGTQVTVSS | high polyreactivity
QVQLVESGGGLVQAGGSLRLSCAASGRIFSRYVRGWYRQAPGKEREFVASITWSGSSTYYADSVKGRFTISRDNAKNTVYLQMNSLKPEDTAVYYCAALGLLSPSPWGTHISEYDSWGQGTQVTVSS | low polyreactivity
QVQLVESGGGLVQAGGSLRLSCAASGRIFSSNAMGWYRQAPGKERELVASISSTGSTKYADSVKGRFTISRDKAKNTVYLQMNSLKQEDSAVYYCAAGRYLWHFTFDYWGQGTQVTVSS | low polyreactivity
QVQLVESGGGLVQAGGSLRLSCAASGRIFSSNAMGWYRQAPGTERELVASLSSTGSPKYADSVKGRFTISRDNAKNTVYLQMNSLIPEDTAVYYCAATQVRRGPAWGRDYWGQGTQVTVSS | low polyreactivity
QVQLVESGGGLVQAGGSLRLSCAASGRIFSSYAMGWYRKAPGKERELVAAIRRGGGSTSYADSVKGRFTISRDNAKNTVYLQMNSLKPEDTAVYYCAADSPRGQVHYIGGYWGQGTQVTVSS | low polyreactivity
QVQLVESGGGLVQAGGSLRLSCAASGRIFSSYAMGWYRQAPGKERELVARISYSGGSTYYADSVKGRFTISRDNAKNTVYLQMNSLKPEDTAVYYCNARYYGYGAGYRPYDYWGQGTQVTVSS | high polyreactivity
QVQLVESGGGLVQAGGSLRLSCAASGRIFSTNAMGWYLQAPGKERELVAGINSGGSTNYADSVKGRFTISRDNAKNTVYLQMNSLKPEDTAVYYCNASLPVDSWYVQYGVDYDYWGQVTQVTVSS | low polyreactivity
QVQLVESGGGLVQAGGSLRLSCAASGRIFSTYAMGWYRQAPGKERELVAAINSIGGRTYYADSVKGRFTISRDNAKNTVYLQMNSMKPEDTAVYYCAASRFRTGQEDDYWGQGTQVTVSS | high polyreactivity
QVQLVESGGGLVQAGGSLRLSCAASGRIFSTYAMVWYREAPGKEMELVAAINKIGGSTYYADSVKGRFTISRDNAKNTVYLQMNSLKPEDTAVYYCAADAPYYPFRRYYYWGQGTQVTVSS | low polyreactivity
QVQLVESGGGLVQAGGSLRLSCAASGRIFSTYVMGWYRQAPGKERELVAAIRNNGGSTYYADSVKGRFTISRDNAKNTVYLQMNSLKPEDTAVYFCAKKSFFTGRWWYDYWGQGTQVTVSS | high polyreactivity
QVQLVESGGGLVQAGGSLRLSCAASGRIFSTYVMGWYRQAPGKERELVAAITWSGGSTYYADSVKGRFTISRDNEKNTVYLQMNSLKPEDTAVYYCAADEIYGYDYWGQGTQVTVSS | high polyreactivity
QVQLVESGGGLVQAGGSLRLSCAASGRIFSVNAMGWYRQAPGKERELVAAITPGASTNYADSVKGRFTISRDNAKNTVYLQMNSLKPEDTAVYYCAAGWVSFEDWVLGSYYEFDYWGQGTQVTVSS | low polyreactivity
QVQLVESGGGLVQAGGSLRLSCAASGRIFSVYALGWYRQAPGKERELVAAISSGDSTYYADSVKGRFTISRDNAKNTVYLQMNSLKPDDTAVFYCAATFPFHDGDYWGQGTQVTVSS | low polyreactivity
QVQLVESGGGLVQAGGSLRLSCAASGRIFSWNAMGWYRQAPGKERELVARITNGGSTYYADSVKGRFTISRDNAKNTVYLQMNSLKPEDTAVYYCAAKYRYYWSSKSKGDYWGQGTQVTVSS | high polyreactivity
QVQLVESGGGLVQAGGSLRLSCAASGRIFSYNAMGFYRQAPGKERELVAGITYGSTYYADSVKGRFTISRDNAKNTVYLQMNSLKPEDTAVYYCAADLSYTSVHGYRSDTLMDYWGQGTQVTVSS | low polyreactivity
QVQLVESGGGLVQAGGSLRLSCAASGRIFSYNAMGWYRPAPGKERELVASISWSGGRTYYADSVKGRFTISRDNAKNTVYLQMNSLKPEDTAVYYCAVRYRGYGYDWGQGTQVTVSS | high polyreactivity
